Experimental data taken from patent US20220348664A1.
pEC50, pIC50, pKd: −log10 of the molar value.

Assays:
[1] = target: mouse PD-L1 ECD with mouse Fc tag (W315-mPro1.ECD.mFc) (mouse) (UniProt Q9EP73); assay: ELISA, plate coated with mouse PD-L1 ECD-mFc, HRP anti-human IgG detection
[2] = target: human PD-L1 protein (SPR analyte) (human) (UniProt Q9NZQ7); assay: SPR (Biacore 8K), antibody captured on anti-human IgG Fc chip, antigen as analyte, 1:1 fit
[3] = target: mouse PD-L1 protein (SPR analyte) (mouse) (UniProt Q9EP73); assay: as above
mouse PD-L1 protein (SPR analyte) (mouse), sequence (Q9EP73 19-239 limits assumed): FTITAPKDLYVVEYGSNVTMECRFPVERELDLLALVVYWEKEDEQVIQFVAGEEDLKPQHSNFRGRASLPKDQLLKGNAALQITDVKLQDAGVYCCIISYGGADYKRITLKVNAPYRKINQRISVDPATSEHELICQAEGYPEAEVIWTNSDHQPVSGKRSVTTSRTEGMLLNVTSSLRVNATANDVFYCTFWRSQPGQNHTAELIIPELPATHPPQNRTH

[4] = target: cyno PD-L1 protein (SPR analyte) (cynomolgus) (UniProt G7PSE7); assay: as above
cyno PD-L1 protein (SPR analyte) (cynomolgus), sequence (G7PSE7 entry or part of it): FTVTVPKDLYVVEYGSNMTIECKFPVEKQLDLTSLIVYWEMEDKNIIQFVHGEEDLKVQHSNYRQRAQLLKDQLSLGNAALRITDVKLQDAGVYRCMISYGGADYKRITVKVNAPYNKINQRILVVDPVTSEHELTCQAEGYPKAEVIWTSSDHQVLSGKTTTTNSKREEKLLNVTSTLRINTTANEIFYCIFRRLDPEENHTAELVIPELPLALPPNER

[5] = target: human PD-L1, full length, on CHO-K1 cells (W315-CHO-K1.hPro1.C11) (human) (UniProt Q9NZQ7); assay: FACS on human PD-L1-expressing CHO-K1 cells, PE anti-human IgG detection
human PD-L1, full length, on CHO-K1 cells (W315-CHO-K1.hPro1.C11) (human), sequence (Q9NZQ7 19-290): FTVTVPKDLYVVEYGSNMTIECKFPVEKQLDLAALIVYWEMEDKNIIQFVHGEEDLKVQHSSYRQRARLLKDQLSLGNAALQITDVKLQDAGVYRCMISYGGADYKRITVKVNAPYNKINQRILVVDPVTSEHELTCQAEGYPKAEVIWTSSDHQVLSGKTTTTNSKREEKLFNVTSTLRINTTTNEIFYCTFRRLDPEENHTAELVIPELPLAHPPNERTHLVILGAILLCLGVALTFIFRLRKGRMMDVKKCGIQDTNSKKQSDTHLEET

[6] = target: human PD-L1 ECD with mouse Fc tag (W315-hPro1.ECD.mFc) (human) (UniProt Q9NZQ7); assay: ELISA, plate coated with human PD-L1 ECD-mFc, HRP anti-human IgG detection
human PD-L1 ECD with mouse Fc tag (W315-hPro1.ECD.mFc) (human), sequence (Q9NZQ7 19-238): as the sequence (G7PSE7 entry or part of it) above, with T33A, S34A, N62S, Q68R, R82Q, L173F, A185T, I192T, L215H counted along it

[7] = target: cynomolgus PD-L1 ECD with His tag (W315-cynoPro1.ECD.His) (cynomolgus) (UniProt G7PSE7); assay: ELISA, plate coated with cynomolgus PD-L1 ECD-His, HRP anti-human IgG detection
cynomolgus PD-L1 ECD with His tag (W315-cynoPro1.ECD.His) (cynomolgus), sequence (G7PSE7 entry or part of it): as the sequence (G7PSE7 entry or part of it) above

[8] = target: human LAG-3 protein (SPR analyte) (human) (UniProt P18627); assay: SPR (Biacore 8K), antibody captured on anti-human IgG Fc chip, antigen as analyte, 1:1 fit
human LAG-3 protein (SPR analyte) (human), sequence (P18627 23-450 limits assumed): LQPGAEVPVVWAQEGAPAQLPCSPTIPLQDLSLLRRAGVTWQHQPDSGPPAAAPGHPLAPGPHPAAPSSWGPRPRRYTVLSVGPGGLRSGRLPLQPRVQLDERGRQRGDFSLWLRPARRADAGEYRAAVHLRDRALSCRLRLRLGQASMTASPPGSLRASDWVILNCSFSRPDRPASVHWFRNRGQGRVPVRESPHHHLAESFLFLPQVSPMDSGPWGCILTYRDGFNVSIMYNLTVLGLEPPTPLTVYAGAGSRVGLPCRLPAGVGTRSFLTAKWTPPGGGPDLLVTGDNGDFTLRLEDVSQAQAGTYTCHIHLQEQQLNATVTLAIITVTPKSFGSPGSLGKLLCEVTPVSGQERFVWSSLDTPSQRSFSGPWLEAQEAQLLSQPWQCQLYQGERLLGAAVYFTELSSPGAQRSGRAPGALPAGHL

[9] = target: human LAG-3 ECD with mouse Fc tag (W339-hPro1.ECD.mFc) (human) (UniProt P18627); assay: FACS competition, blocking of mFc-tagged LAG-3 binding to MHC-II on Raji cells (competitor MHC-II)
human LAG-3 ECD with mouse Fc tag (W339-hPro1.ECD.mFc) (human), sequence (P18627 23-450): as the sequence (P18627 23-450 limits assumed) above

[10] = target: human LAG-3 ECD with mouse Fc tag (W339-hPro1.ECD.mFc) (human) (UniProt P18627); assay: FACS competition: antibody pre-incubated with mFc-tagged LAG-3, binding of LAG-3 to MHC-II on Raji cells detected with anti-mouse IgG Fc-PE; Top is the upper plateau of the LAG-3 signal
[11] = target: cynomolgus LAG-3 protein (Sino-90841-C08H) (cynomolgus); assay: ELISA, cynomolgus LAG-3-His captured by coated anti-His, HRP anti-human IgG detection
[12] = target: human LAG-3, full length, on cells (W339-FlpIn293.hPro1.A3) (human) (UniProt P18627); assay: FACS on human LAG-3-expressing 293 cells, PE anti-human IgG detection
human LAG-3, full length, on cells (W339-FlpIn293.hPro1.A3) (human), sequence (P18627 23-525): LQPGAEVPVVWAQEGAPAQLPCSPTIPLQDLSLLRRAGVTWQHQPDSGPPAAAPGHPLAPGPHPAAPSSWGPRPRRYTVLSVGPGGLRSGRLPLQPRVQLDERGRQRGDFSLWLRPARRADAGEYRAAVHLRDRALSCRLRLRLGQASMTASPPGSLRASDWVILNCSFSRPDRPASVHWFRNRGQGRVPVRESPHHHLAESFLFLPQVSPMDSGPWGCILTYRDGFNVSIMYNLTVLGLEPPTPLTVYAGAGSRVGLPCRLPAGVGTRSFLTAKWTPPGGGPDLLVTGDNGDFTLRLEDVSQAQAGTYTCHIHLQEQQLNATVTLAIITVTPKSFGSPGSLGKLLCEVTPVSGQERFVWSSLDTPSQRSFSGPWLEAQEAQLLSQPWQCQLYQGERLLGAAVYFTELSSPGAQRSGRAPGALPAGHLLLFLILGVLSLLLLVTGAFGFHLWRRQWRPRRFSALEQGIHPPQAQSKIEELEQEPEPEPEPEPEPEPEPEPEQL

[13] = target: human LAG-3 ECD with mouse Fc tag (W339-hPro1.ECD.mFc) (human) (UniProt P18627); assay: ELISA, human LAG-3 ECD-mFc captured by coated goat anti-mouse F(ab)2, HRP anti-human IgG detection
[14] = target: human LAG-3 ECD with mouse Fc tag (W339-hPro1.ECD.mFc) (human) (UniProt P18627); assay: ELISA competition, blocking of mouse Fc-tagged LAG-3 binding to coated human FGL-1 (competitor FGL-1)

mouse PD-L1 ECD with mouse Fc tag (W315-mPro1.ECD.mFc) (mouse), sequence (Q9EP73 19-239): as the sequence (Q9EP73 19-239 limits assumed) above
human PD-L1 protein (SPR analyte) (human), sequence (Q9NZQ7 19-238 limits assumed): as the sequence (G7PSE7 entry or part of it) above, with T33A, S34A, N62S, Q68R, R82Q, L173F, A185T, I192T, L215H counted along it

Substance | pEC50 [1] | pKd [2] | pKd [3] | pKd [4] | pEC50 [5] | Top [5] | pEC50 [6] | Top [6] | pEC50 [7] | Top [7] | pKd [8] | koff [8] | kon [8] | pIC50 [9] | Top [10] | pEC50 [11] | pEC50 [12] | Top [12] | pEC50 [13] | pIC50 [14]
WBP315-BMK8 (Atezolizumab) (antibody) | 10.40 | 10.10 | 8.64 | 8.20 | 9.68 | 8790 MFI | 10.46 | 2.45 OD450-OD540 | 10.28 | 1.98 OD450-OD540 |  |  |  |  |  |  |  |  |  | 
WBP339-BMK1 (25F7) (antibody) |  |  |  |  |  |  |  |  |  |  | 9.21 | 0.000315 s⁻¹ | 508000 M⁻¹ s⁻¹ | 8.73 | 2910 MFI | 8.42 | 9.63 | 1180 MFI | 9.66 | 8.20
